Experimental findings from patent US20260102505A1, “ANTI-CD45-IGN ANTIBODY DRUG CONJUGATES AND USES THEREOF” (Vor Biopharma Inc., priority 2022, published 2026) are described below.

Experiment [1] concerns the target CD45 of non-human primate (NHP), on cells in vivo (non-human primate (NHP); not stated further). As to the kind of experiment: in vivo receptor occupancy on T cells at 24 h after a single dose of 0.60 mg/kg in NHP, n=3.
Experiment [2] has the same target. The experiment is described as follows: in vivo receptor occupancy on T cells at 24 h after a single dose of 0.05 mg/kg in NHP, n=3; footnote: * % RO measured after ADC clearance.
Experiment [3] shares this target. As to the kind of experiment: in vivo receptor occupancy on T cells at 24 h after a single dose of 0.10 mg/kg in NHP, n=6; footnote: * % RO measured after ADC clearance.
The target is the same in experiment [4]. The experiment is described as follows: in vivo receptor occupancy in NHP at the minimum efficacious dose of 0.15 mg/kg.
Experiment [5] shares this target. The experiment is described as follows: in vivo receptor occupancy on T cells at 24 h after a single dose of 0.20 mg/kg in NHP, n=3; footnote: * % RO measured after ADC clearance.
For experiment [6] the target is unchanged. The experiment is described as follows: in vivo receptor occupancy on T cells at 24 h after a single dose of 0.30 mg/kg in NHP, n=6.

B1: anti-CD45 ADC comprising anti-CD45 Ab5 conjugated to DGN-549 via cysteines at amino acid 265 (EU numbering by Kabat) in the Fc region, protease-cleavable linker (antibody, human IgG1, kappa, L234A L235A, V domains shown)
VH: EVQLVESGGGLVQPGGSLRLSCAASGFTFEAYSMNWVRQAPGKGLEWVSYISLSGATIHYADSVKGRFTISRDNAKNSLYLQMNSLRAEDTAVYYCARGGQYYYTSSDYGEVAFDIWGQGTMVTVSS
VL: DIVMTQSPLSLPVTPGEPASISCRSSQSLVSSGYNYLDWYLQKPGQSPQLLIYFGSSRASGVPDRFSGSGSGTDFTLKISRVEAEDVGVYYCMQRRRTPWSFGGGTKVEIKR
modifications: DGN549 (IGN pseudo dimer) via a protease-cleavable linker on the engineered Cys at position 265 (EU numbering; D265C)
Regarding B1, the % Receptor Occupancy (T-cells @ 24h) in experiment [1] is 100%; in experiment [2], 2%; in experiment [3] it was 4%; in experiment [5], 6%; in experiment [6], 46%. In experiment [4], the receptor occupancy (RO) was determined as 5%.
